Assay results published in publication PMC6525205, “Structure of the human frataxin-bound iron-sulfur cluster assembly complex provides insight into its activation mechanism” (Nature Communications, 2019).
Residue numbers refer to the chain shown, from its start. Names may count otherwise. Blank lines part the entries; values can stand above or below the binder they belong to.

Target: T1, NFS1-ISD11-ACP-ISCU complex with biotinylated ISCU (SDAUb) (human | E. coli, UniProt Q9Y697 56-457; Q9HD34 1-91; P0A6A8 1-74; Q9H1K1 35-167, pyridoxal 5′-phosphate covalently-linked to Lys258 | 4′-phosphopantetheine (4′-PP) acyl-chain attached to Ser37 | biotin (site and method not stated))
T1 construct: NFS1 cysteine desulfurase, human, Δ1-55; C-terminal residue printed as His457; ISD11/LYRM4, human; E. coli acyl carrier protein (ACPec), endogenous in the expression host, co-purified; ISCU scaffold protein, human, isoform 1, Δ1-34; the related SDAUF complex holds two copies of each chain; source: purified SDA (E. coli) combined with biotinylated ISCU (E. coli) and isolated on Superdex 200 …
Test: BLI; SDAUb complex (biotinylated ISCU) at 0.1 mg/mL loaded on streptavidin sensors; FXN 500 µM to 1 nM in solution; 25 °C; 50 mM HEPES pH 7.5, 200 mM NaCl, 5% glycerol, 2 mM TCEP, 5 mM DTT, 0.5 mg/mL BSA; Kd from response vs. [FXN], one site-specific binding fit
Settings: both partners purified

T1 sequence (Q9Y697 56-457, chain 1 of 4): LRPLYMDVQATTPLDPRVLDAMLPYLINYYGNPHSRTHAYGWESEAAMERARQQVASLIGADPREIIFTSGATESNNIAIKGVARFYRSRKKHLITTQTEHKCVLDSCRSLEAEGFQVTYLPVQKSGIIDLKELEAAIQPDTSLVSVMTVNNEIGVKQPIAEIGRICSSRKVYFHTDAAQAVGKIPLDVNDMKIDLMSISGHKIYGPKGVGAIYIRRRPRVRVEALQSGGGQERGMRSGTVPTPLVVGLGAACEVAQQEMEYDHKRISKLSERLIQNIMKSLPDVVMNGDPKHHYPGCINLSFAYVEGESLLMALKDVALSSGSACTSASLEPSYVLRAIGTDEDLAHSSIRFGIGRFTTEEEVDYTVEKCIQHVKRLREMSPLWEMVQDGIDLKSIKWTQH
T1 sequence (Q9HD34 whole entry, chain 2 of 4, canonical isoform): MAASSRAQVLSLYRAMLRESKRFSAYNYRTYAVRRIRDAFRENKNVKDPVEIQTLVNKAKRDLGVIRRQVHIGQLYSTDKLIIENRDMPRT
T1 sequence (P0A6A8 1-74, chain 3 of 4): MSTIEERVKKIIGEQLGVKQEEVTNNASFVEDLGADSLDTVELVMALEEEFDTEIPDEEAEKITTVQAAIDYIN
T1 sequence (Q9H1K1 35-167, chain 4 of 4): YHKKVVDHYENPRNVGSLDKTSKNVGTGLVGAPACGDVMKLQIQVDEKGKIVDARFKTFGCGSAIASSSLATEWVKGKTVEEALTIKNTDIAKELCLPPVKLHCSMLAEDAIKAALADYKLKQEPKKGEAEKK

- Kd: 3.32 µM
B1: human frataxin (FXN) (Δ1-80), wild-type (domain or fragment, UniProt Q16595 81-210, looked up)
chain: SGTLGHPGSLDETTYERLAEETLDSLAEFFEDLADKPYTFEDYDVSFGSGVLTVKLGGDLGTYVINKQTPNKQIWLSSPSSGPKRYDWTGKNWVYSHDGVSLHELLAAELTKALKTKLDLSSLAYSGKDA
notes: frataxin (FXN), human, Δ1-80; Cloned into pCDF-LIC-Bsa4; Two copies of FXN stand in the SDAUF heterodecamer; also called FXN(WT); WT; source: E. coli BL21(DE3)-R3-pRARE2, purified (Ni Sepharose, Superdex S75, TEV, reverse Ni); for cryo-EM co-expressed with the His-ISD11/NFS1/ISCU plasmid and purified as the SDAUF complex

- Kd: 134 µM
B2: FXN(R165C) (domain or fragment, human, UniProt Q16595 81-210, looked up)
chain: B1 chain with R85C
notes: frataxin (FXN), human, Δ1-80, clinical variant of Friedreich's ataxia; Variant of m1

- Kd: 38.5 µM
B3: FXN(P163G) (domain or fragment, human, UniProt Q16595 81-210, looked up)
chain: B1 chain with P83G
notes: frataxin (FXN), human, Δ1-80, site-directed variant (Gly is the bacterial equivalent residue); Variant of m1

- Kd: 253 µM
B4: FXN(W155R) (domain or fragment, human, UniProt Q16595 81-210, looked up)
chain: B1 chain with W75R
notes: as for B2

- Kd: 9.45 µM
B5: FXN(N151A) (domain or fragment, human, UniProt Q16595 81-210, looked up)
chain: B1 chain with N71A
notes: frataxin (FXN), human, Δ1-80, site-directed variant; Variant of m1

- Kd: 177 µM
B6: FXN(N146K) (domain or fragment, human, UniProt Q16595 81-210, looked up)
chain: B1 chain with N66K
notes: as for B2

- Kd: 14.4 µM
B7: FXN(D124A) (domain or fragment, human, UniProt Q16595 81-210, looked up)
chain: B1 chain with D44A
notes: as for B5
